Assay [1] concerns the target Poly-(Glu, Tyr) 4:1 (MW: 39100, Messrs. Sigma; CAS number 97105-00-5). Kind of assay: RIfS solution competition: antibody incubated with mixture (PGT 10 ug/50 ul, EGF-RK 0.1 Unit/50 ul, EGF 0.5 ug/50 ul, no ATP), free antibody read on phosphotyrosine-diamino-PEG 2000 sensor; high value = antibody not taken up by substrate.
In assay [2] the target is phosphorylated Poly-(Glu, Tyr) 4:1 (after reaction with EGF-RK and ATP). Nature of the assay: RIfS solution competition: PGT 10 ug/50 ul, EGF-RK 1 Unit/50 ul, ATP, no inhibitor (Tyrphostin 47 series); phosphotyrosine-diamino-PEG 2000 sensor.
Assay [3] addresses oligopeptide Ac-Ile-Tyr-Gly-Glu-Phe-NH2 "M-2165" (Messrs. Bachem, MW 668.8). Nature of the assay: RIfS solution competition: M-2165 10 ug/50 ul, p60c-src-kinase 2 Units/50 ul, no ATP; free antibody read on phosphotyrosine-diamino-PEG 2000 sensor.
Assay [4] addresses phosphorylated Poly-(Glu, Tyr) 4:1 (after reaction with EGF-RK and ATP). Kind of assay: RIfS solution competition: PGT 10 ug/50 ul, EGF-RK 1 Unit/50 ul, ATP, no inhibitor (staurosporin series); phosphotyrosine-diamino-PEG 2000 sensor.
Assay [5] deals with oligopeptide Ac-Ile-Tyr-Gly-Glu-Phe-NH2 "M-2165" (Messrs. Bachem, MW 668.8). Nature of the assay: RIfS solution competition: M-2165 10 ug/50 ul, p60c-src-kinase 4 Units/50 ul, no ATP; free antibody read on phosphotyrosine-aminodextrane (AMD) sensor.
Assay [6] deals with Poly-(Glu, Tyr) 4:1 (MW: 39100, Messrs. Sigma; CAS number 97105-00-5). Nature of the assay: RIfS solution competition: PGT 10 ug/50 ul, EGF-RK 1 Unit/50 ul, no ATP, no inhibitor (control of the genistein series); phosphotyrosine-diamino-PEG 2000 sensor.
The target of assay [7] is phosphorylated Raytide EL (after reaction with EGF-RK and ATP). Kind of assay: RIfS solution competition: Raytide EL 2 ug/50 ul, EGF-RK 0.5 Units/50 ul, ATP; free antibody read on phosphotyrosine-diamino-PEG 2000 sensor; lower value = antibody taken up by phosphorylated substrate.
Assay [8] addresses Poly-(Glu, Tyr) 4:1 (MW: 39100, Messrs. Sigma; CAS number 97105-00-5). Kind of assay: RIfS solution competition: PGT 10 ug/50 ul, EGF-RK 1 Unit/50 ul, no ATP, no inhibitor (control of the staurosporin series); phosphotyrosine-diamino-PEG 2000 sensor.
The target in assay [9] is phosphorylated Poly-(Glu, Tyr) 4:1 (after reaction with EGF-RK and ATP). Kind of assay: RIfS solution competition: antibody incubated with mixture (PGT 10 ug/50 ul, EGF-RK 0.1 Unit/50 ul, EGF 0.5 ug/50 ul, ATP), free antibody read on phosphotyrosine-diamino-PEG 2000 sensor; lower value = antibody taken up by phosphorylated substrate.
Assay [10] has as its target Poly-(Glu, Tyr) 4:1 (MW: 39100, Messrs. Sigma; CAS number 97105-00-5). Kind of assay: RIfS solution competition: PGT 10 ug/50 ul, EGF-RK 2 Units/50 ul, no ATP; free antibody read on phosphotyrosine-diamino-PEG 2000 sensor.
Assay [11] concerns the target phosphorylated Poly-(Glu, Tyr) 4:1 (after reaction with EGF-RK and ATP). Kind of assay: RIfS solution competition: PGT 10 ug/50 ul, EGF-RK 1 Unit/50 ul, ATP, no inhibitor (erbstatin analogue series); phosphotyrosine-diamino-PEG 2000 sensor.
For assay [12] the target is unchanged. Nature of the assay: RIfS solution competition: PGT 10 ug/50 ul, EGF-RK 2 Units/50 ul, ATP; free antibody read on phosphotyrosine-diamino-PEG 2000 sensor; lower value = antibody taken up by phosphorylated substrate.
Assay [13] shares this target. Kind of assay: RIfS solution competition; mean of the six complete mixtures of Table 10.
Assay [14] addresses Raytide EL (protein-tyrosine-kinase substrate, MW 2476 Dalton, Messrs. Calbiochem). Kind of assay: RIfS solution competition: Raytide EL 2 ug/50 ul, EGF-RK 0.5 Units/50 ul, no ATP; free antibody read on phosphotyrosine-diamino-PEG 2000 sensor.
Assay [15] deals with Poly-(Glu, Tyr) 4:1 (MW: 39100, Messrs. Sigma; CAS number 97105-00-5). Nature of the assay: RIfS solution competition: PGT 10 ug/50 ul, EGF-RK 1 Unit/50 ul, no ATP; free antibody read on phosphotyrosine sensor.
Assay [16] shares this target. Nature of the assay: RIfS solution competition: PGT 10 ug/50 ul, EGF-RK 1 Unit/50 ul, no ATP, no inhibitor (control of the Tyrphostin 47 series); phosphotyrosine-diamino-PEG 2000 sensor.
For assay [17] the target is unchanged. Kind of assay: RIfS solution competition; mean of the two mixtures without ATP of Table 10.
The target of assay [18] is phosphorylated Poly-(Glu, Tyr) 4:1 (after reaction with EGF-RK and ATP). Kind of assay: RIfS solution competition: PGT 10 ug/50 ul, EGF-RK 1 Unit/50 ul, ATP, no inhibitor (genistein series); phosphotyrosine-diamino-PEG 2000 sensor.

This note sets out measurements from patent US20050026219A1, “Process for label-free measurement of modified substrate” (Boehringer Ingelheim Pharma GmbH & Co. KG, priority 2001, published 2005).

Where “and” joins values, the source holds several entries; their conditions need not be identical. Equal values may be shown once.

As to “monoclonal murine antibody IgG1 from Ascites: Anti-PhosphoTyrosine (Clone number: PT-66, Messrs. Sigma)”, the Optical layer thickness in nm in assay [1] worked out at 2.59 nm; in assay [2], 0.613 nm; in assay [3], 3.2 nm; in [4], 0.233 nm; in [5], 3.81 nm; in assay [6], 2.4 nm. Besides, the Optical layer thickness in nm in assay [7] was 1.83 nm; in assay [8], 2.99 nm; in assay [9], 2.04 nm; in [10] it was 2.65 nm; in assay [11], 0.852 nm; in assay [12] it was 0.225 nm. Besides, the Optical layer thickness in nm is 3.11 nm in assay [14]; 2.06 nm and 2.27 nm in assay [15]; 2.3 nm in [16]; 0.446 nm in assay [18]. For the same substance, the optical layer thickness in nm (mean value) was 0.19 nm in [13] and 2.16 nm in assay [17].
